A short description of this data set: Biodistribution of radiometal-DOTA-BBN conjugates in CF1 normal mice. The conditions noted are these: 1 hour post-injection; for tissue uptake at 1 h: Avg % ID/gm.

Regarding `CSCC[C@H](NC(=O)[C@H](CC(C)C)NC(=O)[C@H](Cc1cnc[nH]1)NC(=O)CNC(=O)[C@@H](NC(=O)[C@H](C)NC(=O)[C@H](Cc1c[nH]c2ccccc12)NC(=O)[C@H](CCC(N)=O)NC(=O)CN1CCN(CC(=O)O)CCN(CC(=O)O)CCN(CC(=O)O)CC1)C(C)C)C(N)=O` [111In-DOTA-0-BBN[7-14]NH2] [metal not drawn], the “Avg % ID, Carcass” value was 1.78 ± 0.37 % ID; the “Avg % ID, L. Intestine” value was 0.10 ± 0.02 % ID; the “Avg % ID, S. Intestine” value came to 0.25 ± 0.04 % ID; the “Avg % ID/gm, Blood” value stood at 0.10 ± 0.03 % ID/gm. Further, the “Avg % ID/gm, Muscle” value turned out to be 0.03 ± 0.02 % ID/gm; the “Avg % ID/gm, S. Intestine” value came to 0.44 ± 0.64 % ID/gm; the “Avg % ID/gm, Stomach” value came to 0.06 ± 0.03 % ID/gm.
As to `CSCC[C@H](NC(=O)[C@H](CC(C)C)NC(=O)[C@H](Cc1cnc[nH]1)NC(=O)CNC(=O)[C@@H](NC(=O)[C@H](C)NC(=O)[C@H](Cc1c[nH]c2ccccc12)NC(=O)[C@H](CCC(N)=O)NC(=O)CCNC(=O)CN1CCN(CC(=O)O)CCN(CC(=O)O)CCN(CC(=O)O)CC1)C(C)C)C(N)=O` [149Pm-DOTA-β-Ala-BBN[7-14]NH2], the “Avg % ID, Blood” value is 0.30 ± 0.32 % ID; the “Avg % ID, Carcass” value worked out at 1.64 ± 0.38 % ID; the “Avg % ID, Heart” value was determined as 0.02 ± 0.02 % ID; the “Avg % ID, Kidney” value is 0.61 ± 0.41 % ID. In addition, the “Avg % ID, L. Intestine” value came out at 0.31 ± 0.06 % ID; the “Avg % ID, Liver” value turned out to be 0.23 ± 0.07 % ID; the “Avg % ID, Lung” value amounted to 0.06 ± 0.04 % ID; the “Avg % ID, Muscle” value is 0.00 ± 0.01 % ID. Also, the “Avg % ID, Pancreas” value came out at 0.46 ± 0.23 % ID; the “Avg % ID, S. Intestine” value was determined as 0.95 ± 0.19 % ID; the “Avg % ID, Spleen” value came out at 0.02 ± 0.04 % ID; the “Avg % ID, Stomach” value turned out to be 0.10 ± 0.03 % ID. The “Avg % ID/gm, Blood” value is 0.21 ± 0.22 % ID/gm; the “Avg % ID/gm, Heart” value worked out at 0.17 ± 0.24 % ID/gm; the “Avg % ID/gm, Kidney” value is recorded as 2.05 ± 1.63 % ID/gm; the “Avg % ID/gm, L. Intestine” value is 0.42 ± 0.08 % ID/gm. Also, the “Avg % ID/gm, Liver” value turned out to be 0.15 ± 0.05 % ID/gm; the “Avg % ID/gm, Lung” value came out at 0.34 ± 0.30 % ID/gm; the “Avg % ID/gm, Muscle” value came to 0.04 ± 0.10 % ID/gm; the “Avg % ID/gm, Pancreas” value is listed as 2.40 ± 1.33 % ID/gm. Also, the “Avg % ID/gm, S. Intestine” value stood at 0.63 ± 0.20 % ID/gm; the “Avg % ID/gm, Spleen” value turned out to be 0.16 ± 0.31 % ID/gm; the “Avg % ID/gm, Stomach” value worked out at 0.19 ± 0.11 % ID/gm.
Take `CSCC[C@H](NC(=O)[C@H](CC(C)C)NC(=O)[C@H](Cc1cnc[nH]1)NC(=O)CNC(=O)[C@@H](NC(=O)[C@H](C)NC(=O)[C@H](Cc1c[nH]c2ccccc12)NC(=O)[C@H](CCC(N)=O)NC(=O)CCNC(=O)CN1CCN(CC(=O)O)CCN(CC(=O)O)CCN(CC(=O)O)CC1)C(C)C)C(N)=O` [111In-DOTA-β-Ala-BBN[7-14]NH2, metal not drawn]: the tissue uptake dose at 1 h reads like this: (CF-1, mouse, in vivo, iv, total radioactivity, Avg % ID, Blood) 0.23 ± 0.1 %ID; (CF-1, mouse, in vivo, iv, total radioactivity, Avg % ID, Carcass) 2.23 ± 0.36 %ID; (CF-1, mouse, in vivo, iv, total radioactivity, Avg % ID, Kidney) 0.62 ± 0.1 %ID; (CF-1, mouse, in vivo, iv, total radioactivity, Avg % ID, Liver) 0.17 ± 0.03 %ID; (CF-1, mouse, in vivo, iv, total radioactivity, Avg % ID, Lung) 0.03 ± 0.02 %ID; (CF-1, mouse, in vivo, iv, total radioactivity, Avg % ID, Stomach) 0.13 ± 0.02 %ID. For the setting “CF-1, mouse, in vivo, iv, total radioactivity, Avg % ID, Urine”, the dose excreted at 1 h is 92.41 ± 0.9%. The tissue uptake (commonly the percentage of the injected dose found per gram of tissue) at 1 h stood at 0.11 ± 0.06 %ID/g (CF-1, mouse, in vivo, iv, total radioactivity, Blood); 1.4 ± 0.27 %ID/g (CF-1, mouse, in vivo, iv, total radioactivity, Kidney); 0.11 ± 0.02 %ID/g (CF-1, mouse, in vivo, iv, total radioactivity, Liver); 0.3 ± 0.07 %ID/g (CF-1, mouse, in vivo, iv, total radioactivity, Stomach).
`CSCC[C@H](NC(=O)[C@H](CC(C)C)NC(=O)[C@H](Cc1c[nH]cn1)NC(=O)CNC(=O)[C@@H](NC(=O)[C@H](C)NC(=O)[C@H](Cc1c[nH]c2ccccc12)NC(=O)[C@H](CCC(N)=O)NC(=O)CCCCCCCCCCNC(=O)CN1CCN(CC(=O)O)CCN(CC(=O)O)CCN(CC(=O)O)CC1)C(C)C)C(N)=O` [111In-DOTA-11-Aun-BBN[7-14]NH2] [metal not drawn]: the “Avg % ID, Heart” value was determined as 0.02 ± 0.01 % ID; the “Avg % ID, Lung” value was 0.08 ± 0.01 % ID; the “Avg % ID, Muscle” value worked out at 0.02 ± 0.01 % ID; the “Avg % ID/gm, Blood” value came out at 0.34 ± 0.08 % ID/gm. Moreover, the “Avg % ID/gm, Heart” value is 0.13 ± 0.04 % ID/gm; the “Avg % ID/gm, Kidney” value is 2.06 ± 0.31 % ID/gm; the “Avg % ID/gm, Lung” value turned out to be 0.26 ± 0.05 % ID/gm; the “Avg % ID/gm, Muscle” value is listed as 0.09 ± 0.03 % ID/gm.
Regarding `CSCC[C@H](NC(=O)[C@H](CC(C)C)NC(=O)[C@H](Cc1cnc[nH]1)NC(=O)CNC(=O)[C@@H](NC(=O)[C@H](C)NC(=O)[C@H](Cc1c[nH]c2ccccc12)NC(=O)[C@H](CCC(N)=O)NC(=O)CN1CCN(CC(=O)O)CCN(CC(=O)O)CCN(CC(=O)O)CC1)C(C)C)C(N)=O` [177Lu-DOTA-0-BBN[7-14]NH2] [metal not drawn], the “Avg % ID, Blood” value turned out to be 0.39 ± 0.34 % ID; the “Avg % ID, Carcass” value amounted to 4.34 ± 2.64 % ID; the “Avg % ID, Heart” value is on record as 0.01 ± 0.02 % ID; the “Avg % ID, Kidney” value is 0.58 ± 0.10 % ID. In addition, the “Avg % ID, L. Intestine” value was 0.09 ± 0.12 % ID; the “Avg % ID, Liver” value worked out at 0.19 ± 0.10 % ID; the “Avg % ID, Lung” value is given as 0.04 ± 0.06 % ID; the “Avg % ID, Muscle” value is 0.02 ± 0.03 % ID. Besides, the “Avg % ID, Pancreas” value was 0.06 ± 0.10 % ID; the “Avg % ID, S. Intestine” value stood at 1.27 ± 1.03 % ID; the “Avg % ID, Spleen” value is listed as 0.01 ± 0.01 % ID; the “Avg % ID, Stomach” value is on record as 0.05 ± 0.11 % ID. The “Avg % ID/gm, Blood” value was found to be 0.58 ± 0.96 % ID/gm; the “Avg % ID/gm, Heart” value is on record as 0.04 ± 0.09 % ID/gm; the “Avg % ID/gm, Kidney” value was 1.21 ± 0.31 % ID/gm; the “Avg % ID/gm, L. Intestine” value is 0.07 ± 0.09 % ID/gm. For the same compound, the “Avg % ID/gm, Liver” value is 0.09 ± 0.06 % ID/gm; the “Avg % ID/gm, Lung” value was determined as 0.19 ± 0.26 % ID/gm; the “Avg % ID/gm, Muscle” value is recorded as 0.09 ± 0.15 % ID/gm; the “Avg % ID/gm, Pancreas” value was 0.18 ± 0.28 % ID/gm. Besides, the “Avg % ID/gm, S. Intestine” value is reported as 0.75 ± 0.60 % ID/gm; the “Avg % ID/gm, Spleen” value was 0.04 ± 0.09 % ID/gm; the “Avg % ID/gm, Stomach” value turned out to be 0.10 ± 0.21 % ID/gm.
For the compound `CSCC[C@H](NC(=O)[C@H](CC(C)C)NC(=O)[C@H](Cc1c[nH]cn1)NC(=O)CNC(=O)[C@@H](NC(=O)[C@H](C)NC(=O)[C@H](Cc1c[nH]c2ccccc12)NC(=O)[C@H](CCC(N)=O)NC(=O)CCCCNC(=O)CN1CCN(CC(=O)O)CCN(CC(=O)O)CCN(CC(=O)O)CC1)C(C)C)C(N)=O` [149Pm-DOTA-5-Ava-BBN[7-14]NH2], the “Avg % ID, Blood” value is on record as 0.47 ± 0.11 % ID; the “Avg % ID, Carcass” value was found to be 6.16 ± 0.75 % ID; the “Avg % ID, Heart” value came to 0.06 ± 0.09 % ID; the “Avg % ID, Kidney” value is on record as 1.11 ± 0.29 % ID. Further, the “Avg % ID, L. Intestine” value is given as 3.18 ± 1.18 % ID; the “Avg % ID, Liver” value was found to be 0.37 ± 0.20 % ID; the “Avg % ID, Lung” value came out at 0.17 ± 0.21 % ID; the “Avg % ID, Muscle” value worked out at 0.03 ± 0.04 % ID. Further, the “Avg % ID, Pancreas” value came to 4.25 ± 0.43 % ID; the “Avg % ID, S. Intestine” value was determined as 7.70 ± 0.66 % ID; the “Avg % ID, Spleen” value came to 0.27 ± 0.13 % ID; the “Avg % ID, Stomach” value was 0.77 ± 0.74 % ID. For the same compound, the “Avg % ID/gm, Blood” value stood at 0.27 ± 0.06 % ID/gm; the “Avg % ID/gm, Heart” value is listed as 0.42 ± 0.59 % ID/gm; the “Avg % ID/gm, Kidney” value is 2.81 ± 0.66 % ID/gm; the “Avg % ID/gm, L. Intestine” value amounted to 3.53 ± 1.10 % ID/gm. Besides, the “Avg % ID/gm, Liver” value was found to be 0.23 ± 0.13 % ID/gm; the “Avg % ID/gm, Lung” value is reported as 0.78 ± 1.08 % ID/gm; the “Avg % ID/gm, Muscle” value is listed as 0.24 ± 0.25 % ID/gm; the “Avg % ID/gm, Pancreas” value was found to be 22.1 ± 5.40 % ID/gm. Also, the “Avg % ID/gm, S. Intestine” value was determined as 5.15 ± 1.20 % ID/gm; the “Avg % ID/gm, Spleen” value was determined as 2.37 ± 1.36 % ID/gm; the “Avg % ID/gm, Stomach” value came out at 1.90 ± 1.60 % ID/gm.
Regarding `CSCC[C@H](NC(=O)[C@H](CC(C)C)NC(=O)[C@H](Cc1c[nH]cn1)NC(=O)CNC(=O)[C@@H](NC(=O)[C@H](C)NC(=O)[C@H](Cc1c[nH]c2ccccc12)NC(=O)[C@H](CCC(N)=O)NC(=O)CCCCNC(=O)CN1CCN(CC(=O)O)CCN(CC(=O)O)CCN(CC(=O)O)CC1)C(C)C)C(N)=O` [111In-DOTA-5-Ava-BBN[7-14]NH2] [metal not drawn], the “Avg % ID, Carcass” value came to 3.15 ± 0.70 % ID; the “Avg % ID, Heart” value was 0.02 ± 0.01 % ID; the “Avg % ID, Liver” value amounted to 0.26 ± 0.03 % ID; the “Avg % ID, Lung” value turned out to be 0.04 ± 0.01 % ID. Moreover, the “Avg % ID, Muscle” value came out at 0.01 ± 0.01 % ID; the “Avg % ID, S. Intestine” value is listed as 0.11 ± 0.04 % ID; the “Avg % ID, Spleen” value came to 0.11 ± 0.04 % ID; the “Avg % ID, Stomach” value is given as 0.37 ± 0.16 % ID. For the same compound, the “Avg % ID/gm, Heart” value is 0.10 ± 0.04 % ID/gm; the “Avg % ID/gm, Liver” value stood at 0.16 ± 0.02 % ID/gm; the “Avg % ID/gm, Muscle” value turned out to be 0.05 ± 0.02 % ID/gm; the “Avg % ID/gm, S. Intestine” value is 3.49 ± 0.87 % ID/gm. The “Avg % ID/gm, Spleen” value stood at 0.87 ± 0.28 % ID/gm and the “Avg % ID/gm, Stomach” value came out at 0.71 ± 0.24 % ID/gm.

For the origin of these results see patent US20060067886A1, “Gastrin receptor-avid peptide conjugates” (priority 1997, published 2006).
